36 variants from the RNAGym collection of RNA variant scans (doi:10.1021/acssynbio.7b00057) can be followed below.

Sequences and labels used below:
B1: Pistol ribozyme (parent)
chain: GGGUCGUUGUUCCAUAAUCGCGUGGAUAUGGCACGCAAGUUUCUACCGGGCACCGUAAAUGUCCGACUGGAGCCGUUCGGGCGGCUAUAAACAGACCUCAGGCCCGAAGCGUGGCGGCACCUGCCGCCGGUGGUAAAAAAGAUCGGAAGAGCACACGUCU

Variants of B1 are the subject of the data set. As to the kind of experiment: aptazyme ON/OFF ratio, guanine; higher = stronger switching; co-transcriptional cleavage with and without guanine.
GGGUCGUGACUACAUAAUCGCGUGGAUAUGGCACGCAAGUUUCUACCGGGCACCGUAAAUGUCCGACUGGAGCCGUUCGGGCGGCUAUAAACAGACCUCAGGCCCGAAGCGUGGCGGCACCUGCCGCCGGUGGUAAAAAAGAUCGGAAGAGCACACGUCU: the “aptazyme ON/OFF ratio” value is 1.25.

With GGGUCGUGACUGCAUAAUCGCGUGGAUAUGGCACGCAAGUUUCUACCGGGCACCGUAAAUGUCCGACUGGAGCCGUUCGGGCGGCUAUAAACAGACCUCAGGCCCGAAGCGUGGCGGCACCUGCCGCCGGUGGUAAAAAAGAUCGGAAGAGCACACGUCU, the “aptazyme ON/OFF ratio” value was determined as 1.2.

On to GGGUCGUGACUUCAUAAUCGCGUGGAUAUGGCACGCAAGUUUCUACCGGGCACCGUAAAUGUCCGACUGGAGCCGUUCGGGCGGCUAUAAACAGACCUCAGGCCCGAAGCGUGGCGGCACCUGCCGCCGGUGGUAAAAAAGAUCGGAAGAGCACACGUCU, for which the “aptazyme ON/OFF ratio” value was 1.14.

For the variant GGGUCGUGAAGGAAUAAUCGCGUGGAUAUGGCACGCAAGUUUCUACCGGGCACCGUAAAUGUCCGACUGGAGCCGUUCGGGCGGCUAUAAACAGACCUCAGGCCCGAAGCGUGGCGGCACCUGCCGCCGGUGGUAAAAAAGAUCGGAAGAGCACACGUCU, the “aptazyme ON/OFF ratio” value was determined as 1.34.

In the case of GGGUCGUGAAGGGAUAAUCGCGUGGAUAUGGCACGCAAGUUUCUACCGGGCACCGUAAAUGUCCGACUGGAGCCGUUCGGGCGGCUAUAAACAGACCUCAGGCCCGAAGCGUGGCGGCACCUGCCGCCGGUGGUAAAAAAGAUCGGAAGAGCACACGUCU, the “aptazyme ON/OFF ratio” value worked out at 1.05.

With GGGUCGUGAAGGUAUAAUCGCGUGGAUAUGGCACGCAAGUUUCUACCGGGCACCGUAAAUGUCCGACUGGAGCCGUUCGGGCGGCUAUAAACAGACCUCAGGCCCGAAGCGUGGCGGCACCUGCCGCCGGUGGUAAAAAAGAUCGGAAGAGCACACGUCU, the “aptazyme ON/OFF ratio” value was determined as 1.28.

GGGUCGUGAAGCUAUAAUCGCGUGGAUAUGGCACGCAAGUUUCUACCGGGCACCGUAAAUGUCCGACUGGAGCCGUUCGGGCGGCUAUAAACAGACCUCAGGCCCGAAGCGUGGCGGCACCUGCCGCCGGUGGUAAAAAAGAUCGGAAGAGCACACGUCU: the “aptazyme ON/OFF ratio” value is 1.06.

Turning to GGGUCGUGAAGCAAUAAUCGCGUGGAUAUGGCACGCAAGUUUCUACCGGGCACCGUAAAUGUCCGACUGGAGCCGUUCGGGCGGCUAUAAACAGACCUCAGGCCCGAAGCGUGGCGGCACCUGCCGCCGGUGGUAAAAAAGAUCGGAAGAGCACACGUCU, the “aptazyme ON/OFF ratio” value was 1.23.

As for GGGUCGUGAAGCGAUAAUCGCGUGGAUAUGGCACGCAAGUUUCUACCGGGCACCGUAAAUGUCCGACUGGAGCCGUUCGGGCGGCUAUAAACAGACCUCAGGCCCGAAGCGUGGCGGCACCUGCCGCCGGUGGUAAAAAAGAUCGGAAGAGCACACGUCU, the “aptazyme ON/OFF ratio” value worked out at 1.07.

Regarding GGGUCGUGAAGCCAUAAUCGCGUGGAUAUGGCACGCAAGUUUCUACCGGGCACCGUAAAUGUCCGACUGGAGCCGUUCGGGCGGCUAUAAACAGACCUCAGGCCCGAAGCGUGGCGGCACCUGCCGCCGGUGGUAAAAAAGAUCGGAAGAGCACACGUCU, the “aptazyme ON/OFF ratio” value stood at 1.55.

In the case of GGGUCGUGAAGUUAUAAUCGCGUGGAUAUGGCACGCAAGUUUCUACCGGGCACCGUAAAUGUCCGACUGGAGCCGUUCGGGCGGCUAUAAACAGACCUCAGGCCCGAAGCGUGGCGGCACCUGCCGCCGGUGGUAAAAAAGAUCGGAAGAGCACACGUCU, the “aptazyme ON/OFF ratio” value was 1.56.

Take GGGUCGUGAAGUAAUAAUCGCGUGGAUAUGGCACGCAAGUUUCUACCGGGCACCGUAAAUGUCCGACUGGAGCCGUUCGGGCGGCUAUAAACAGACCUCAGGCCCGAAGCGUGGCGGCACCUGCCGCCGGUGGUAAAAAAGAUCGGAAGAGCACACGUCU: the “aptazyme ON/OFF ratio” value came out at 1.31.

GGGUCGUGAAGUGAUAAUCGCGUGGAUAUGGCACGCAAGUUUCUACCGGGCACCGUAAAUGUCCGACUGGAGCCGUUCGGGCGGCUAUAAACAGACCUCAGGCCCGAAGCGUGGCGGCACCUGCCGCCGGUGGUAAAAAAGAUCGGAAGAGCACACGUCU: the “aptazyme ON/OFF ratio” value worked out at 1.25.

With GGGUCGUGACUUAAUAAUCGCGUGGAUAUGGCACGCAAGUUUCUACCGGGCACCGUAAAUGUCCGACUGGAGCCGUUCGGGCGGCUAUAAACAGACCUCAGGCCCGAAGCGUGGCGGCACCUGCCGCCGGUGGUAAAAAAGAUCGGAAGAGCACACGUCU, the “aptazyme ON/OFF ratio” value was 1.14.

Take GGGUCGUGACUUGAUAAUCGCGUGGAUAUGGCACGCAAGUUUCUACCGGGCACCGUAAAUGUCCGACUGGAGCCGUUCGGGCGGCUAUAAACAGACCUCAGGCCCGAAGCGUGGCGGCACCUGCCGCCGGUGGUAAAAAAGAUCGGAAGAGCACACGUCU: the “aptazyme ON/OFF ratio” value was 1.08.

As for GGGUCGUGACUUUAUAAUCGCGUGGAUAUGGCACGCAAGUUUCUACCGGGCACCGUAAAUGUCCGACUGGAGCCGUUCGGGCGGCUAUAAACAGACCUCAGGCCCGAAGCGUGGCGGCACCUGCCGCCGGUGGUAAAAAAGAUCGGAAGAGCACACGUCU, the “aptazyme ON/OFF ratio” value stood at 1.11.

On to GGGUCGUGACUCCAUAAUCGCGUGGAUAUGGCACGCAAGUUUCUACCGGGCACCGUAAAUGUCCGACUGGAGCCGUUCGGGCGGCUAUAAACAGACCUCAGGCCCGAAGCGUGGCGGCACCUGCCGCCGGUGGUAAAAAAGAUCGGAAGAGCACACGUCU, for which the “aptazyme ON/OFF ratio” value was 2.29.

For the variant GGGUCGUGAACUUAUAAUCGCGUGGAUAUGGCACGCAAGUUUCUACCGGGCACCGUAAAUGUCCGACUGGAGCCGUUCGGGCGGCUAUAAACAGACCUCAGGCCCGAAGCGUGGCGGCACCUGCCGCCGGUGGUAAAAAAGAUCGGAAGAGCACACGUCU, the “aptazyme ON/OFF ratio” value amounted to 1.07.

Take GGGUCGUGAACCAAUAAUCGCGUGGAUAUGGCACGCAAGUUUCUACCGGGCACCGUAAAUGUCCGACUGGAGCCGUUCGGGCGGCUAUAAACAGACCUCAGGCCCGAAGCGUGGCGGCACCUGCCGCCGGUGGUAAAAAAGAUCGGAAGAGCACACGUCU: the “aptazyme ON/OFF ratio” value was 1.08.

Take GGGUCGUGAACCUAUAAUCGCGUGGAUAUGGCACGCAAGUUUCUACCGGGCACCGUAAAUGUCCGACUGGAGCCGUUCGGGCGGCUAUAAACAGACCUCAGGCCCGAAGCGUGGCGGCACCUGCCGCCGGUGGUAAAAAAGAUCGGAAGAGCACACGUCU: the “aptazyme ON/OFF ratio” value turned out to be 1.01.

In the case of GGGUCGUGAACCGAUAAUCGCGUGGAUAUGGCACGCAAGUUUCUACCGGGCACCGUAAAUGUCCGACUGGAGCCGUUCGGGCGGCUAUAAACAGACCUCAGGCCCGAAGCGUGGCGGCACCUGCCGCCGGUGGUAAAAAAGAUCGGAAGAGCACACGUCU, the “aptazyme ON/OFF ratio” value was found to be 1.04.

Regarding GGGUCGUGACUCGAUAAUCGCGUGGAUAUGGCACGCAAGUUUCUACCGGGCACCGUAAAUGUCCGACUGGAGCCGUUCGGGCGGCUAUAAACAGACCUCAGGCCCGAAGCGUGGCGGCACCUGCCGCCGGUGGUAAAAAAGAUCGGAAGAGCACACGUCU, the “aptazyme ON/OFF ratio” value was 1.03.

With GGGUCGUGACUCAAUAAUCGCGUGGAUAUGGCACGCAAGUUUCUACCGGGCACCGUAAAUGUCCGACUGGAGCCGUUCGGGCGGCUAUAAACAGACCUCAGGCCCGAAGCGUGGCGGCACCUGCCGCCGGUGGUAAAAAAGAUCGGAAGAGCACACGUCU, the “aptazyme ON/OFF ratio” value stood at 1.04.

Consider GGGUCGUGACUCUAUAAUCGCGUGGAUAUGGCACGCAAGUUUCUACCGGGCACCGUAAAUGUCCGACUGGAGCCGUUCGGGCGGCUAUAAACAGACCUCAGGCCCGAAGCGUGGCGGCACCUGCCGCCGGUGGUAAAAAAGAUCGGAAGAGCACACGUCU, for which the “aptazyme ON/OFF ratio” value stood at 1.07.

In the case of GGGUCGUGACUAUAUAAUCGCGUGGAUAUGGCACGCAAGUUUCUACCGGGCACCGUAAAUGUCCGACUGGAGCCGUUCGGGCGGCUAUAAACAGACCUCAGGCCCGAAGCGUGGCGGCACCUGCCGCCGGUGGUAAAAAAGAUCGGAAGAGCACACGUCU, the “aptazyme ON/OFF ratio” value amounted to 1.17.

With GGGUCGUGACUAGAUAAUCGCGUGGAUAUGGCACGCAAGUUUCUACCGGGCACCGUAAAUGUCCGACUGGAGCCGUUCGGGCGGCUAUAAACAGACCUCAGGCCCGAAGCGUGGCGGCACCUGCCGCCGGUGGUAAAAAAGAUCGGAAGAGCACACGUCU, the “aptazyme ON/OFF ratio” value amounted to 1.09.

Take GGGUCGUGACUAAAUAAUCGCGUGGAUAUGGCACGCAAGUUUCUACCGGGCACCGUAAAUGUCCGACUGGAGCCGUUCGGGCGGCUAUAAACAGACCUCAGGCCCGAAGCGUGGCGGCACCUGCCGCCGGUGGUAAAAAAGAUCGGAAGAGCACACGUCU: the “aptazyme ON/OFF ratio” value is 1.2.

GGGUCGUGAAGACAUAAUCGCGUGGAUAUGGCACGCAAGUUUCUACCGGGCACCGUAAAUGUCCGACUGGAGCCGUUCGGGCGGCUAUAAACAGACCUCAGGCCCGAAGCGUGGCGGCACCUGCCGCCGGUGGUAAAAAAGAUCGGAAGAGCACACGUCU: the “aptazyme ON/OFF ratio” value was found to be 1.08.

On to GGGUCGUGAAGUCAUAAUCGCGUGGAUAUGGCACGCAAGUUUCUACCGGGCACCGUAAAUGUCCGACUGGAGCCGUUCGGGCGGCUAUAAACAGACCUCAGGCCCGAAGCGUGGCGGCACCUGCCGCCGGUGGUAAAAAAGAUCGGAAGAGCACACGUCU, for which the “aptazyme ON/OFF ratio” value is 1.3.

For the variant GGGUCGUGAAGGCAUAAUCGCGUGGAUAUGGCACGCAAGUUUCUACCGGGCACCGUAAAUGUCCGACUGGAGCCGUUCGGGCGGCUAUAAACAGACCUCAGGCCCGAAGCGUGGCGGCACCUGCCGCCGGUGGUAAAAAAGAUCGGAAGAGCACACGUCU, the “aptazyme ON/OFF ratio” value was found to be 1.48.

With GGGUCGUGACUGAAUAAUCGCGUGGAUAUGGCACGCAAGUUUCUACCGGGCACCGUAAAUGUCCGACUGGAGCCGUUCGGGCGGCUAUAAACAGACCUCAGGCCCGAAGCGUGGCGGCACCUGCCGCCGGUGGUAAAAAAGAUCGGAAGAGCACACGUCU, the “aptazyme ON/OFF ratio” value was 1.21.

Turning to GGGUCGUGACUGUAUAAUCGCGUGGAUAUGGCACGCAAGUUUCUACCGGGCACCGUAAAUGUCCGACUGGAGCCGUUCGGGCGGCUAUAAACAGACCUCAGGCCCGAAGCGUGGCGGCACCUGCCGCCGGUGGUAAAAAAGAUCGGAAGAGCACACGUCU, the “aptazyme ON/OFF ratio” value came to 1.33.

In the case of GGGUCGUGACUGGAUAAUCGCGUGGAUAUGGCACGCAAGUUUCUACCGGGCACCGUAAAUGUCCGACUGGAGCCGUUCGGGCGGCUAUAAACAGACCUCAGGCCCGAAGCGUGGCGGCACCUGCCGCCGGUGGUAAAAAAGAUCGGAAGAGCACACGUCU, the “aptazyme ON/OFF ratio” value came out at 1.2.

As to GGGUCGUGAAGAAAUAAUCGCGUGGAUAUGGCACGCAAGUUUCUACCGGGCACCGUAAAUGUCCGACUGGAGCCGUUCGGGCGGCUAUAAACAGACCUCAGGCCCGAAGCGUGGCGGCACCUGCCGCCGGUGGUAAAAAAGAUCGGAAGAGCACACGUCU, the “aptazyme ON/OFF ratio” value amounted to 1.17.

Consider GGGUCGUGAAGAUAUAAUCGCGUGGAUAUGGCACGCAAGUUUCUACCGGGCACCGUAAAUGUCCGACUGGAGCCGUUCGGGCGGCUAUAAACAGACCUCAGGCCCGAAGCGUGGCGGCACCUGCCGCCGGUGGUAAAAAAGAUCGGAAGAGCACACGUCU, for which the “aptazyme ON/OFF ratio” value was found to be 1.27.

Regarding GGGUCGUGAAGAGAUAAUCGCGUGGAUAUGGCACGCAAGUUUCUACCGGGCACCGUAAAUGUCCGACUGGAGCCGUUCGGGCGGCUAUAAACAGACCUCAGGCCCGAAGCGUGGCGGCACCUGCCGCCGGUGGUAAAAAAGAUCGGAAGAGCACACGUCU, the “aptazyme ON/OFF ratio” value amounted to 1.09.
